1 substance from patent publication US20150225472A1 can be followed below.

In the test the target is Light chain of BDD-Factor VIII (FVIII: C light chain) expressed in Pichia pastoris GS115 (Homo sapiens (Human)) (UniProt P00451). Nature of the test: cell-based or functional assay.
Sequence of Light chain of BDD-Factor VIII (FVIII: C light chain) expressed in Pichia pastoris GS115 (Homo sapiens (Human)) (P00451 other isoform, or with tags, fused parts or gaps limits assumed): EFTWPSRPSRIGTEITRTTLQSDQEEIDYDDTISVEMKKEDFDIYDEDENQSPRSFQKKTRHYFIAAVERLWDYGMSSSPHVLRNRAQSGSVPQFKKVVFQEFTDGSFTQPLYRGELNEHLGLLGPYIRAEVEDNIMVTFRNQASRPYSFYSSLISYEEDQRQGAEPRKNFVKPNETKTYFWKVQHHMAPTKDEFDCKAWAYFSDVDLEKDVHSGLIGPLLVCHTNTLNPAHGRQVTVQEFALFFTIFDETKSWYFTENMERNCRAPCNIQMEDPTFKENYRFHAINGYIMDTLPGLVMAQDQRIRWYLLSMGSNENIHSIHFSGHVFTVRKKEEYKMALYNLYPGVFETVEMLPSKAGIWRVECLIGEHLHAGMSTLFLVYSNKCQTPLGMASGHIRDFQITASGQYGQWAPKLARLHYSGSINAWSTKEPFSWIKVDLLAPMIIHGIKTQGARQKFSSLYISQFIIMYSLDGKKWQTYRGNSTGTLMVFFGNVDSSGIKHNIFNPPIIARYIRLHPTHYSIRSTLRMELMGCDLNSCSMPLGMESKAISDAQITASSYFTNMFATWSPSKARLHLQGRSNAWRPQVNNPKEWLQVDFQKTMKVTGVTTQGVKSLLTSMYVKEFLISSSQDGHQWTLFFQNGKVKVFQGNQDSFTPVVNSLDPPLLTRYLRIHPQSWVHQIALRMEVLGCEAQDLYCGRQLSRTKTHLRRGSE

“Heavy chain of BDD-Factor VIII (FVIII: C heavy chain, A1 and A2 domains) expressed in Pichia pastoris GS115 (from UniProt P00451 20-759)”: the Specific Activity[IU/mg], chromogenic assay was 7660 IU/mg and the Specific Activity[IU/mg], one stage clotting assay came out at 132 IU/mg.
